The source of these data is article PMC4551919 (Nucleic Acids Research, 2015).

The chains are these.
B1: UPF1, full length (natural protein)
chain: MSVEAYGPSSQTLTFLDTEEAELLGADTQGSEFEFTDFTLPSQTQTPPGGPGGPGGGGAGGPGGAGAGAAAGQLDAQVGPEGILQNGAVDDSVAKTSQLLAELNFEEDEEDTYYTKDLPIHACSYCGIHDPACVVYCNTSKKWFCNGRGNTSGSHIVNHLVRAKCKEVTLHKDGPLGETVLECYNCGCRNVFLLGFIPAKADSVVVLLCRQPCASQSSLKDINWDSSQWQPLIQDRCFLSWLVKIPSEQEQLRARQITAQQINKLEELWKENPSATLEDLEKPGVDEEPQHVLLRYEDAYQYQNIFGPLVKLEADYDKKLKESQTQDNITVRWDLGLNKKRIAYFTLPKTDSGNEDLVIIWLRDMRLMQGDEICLRYKGDLAPLWKGIGHVIKVPDNYGDEIAIELRSSVGAPVEVTHNFQVDFVWKSTSFDRMQSALKTFAVDETSVSGYIYHKLLGHEVEDVIIKCQLPKRFTAQGLPDLNHSQVYAVKTVLQRPLSLIQGPPGTGKTVTSATIVYHLARQGNGPVLVCAPSNIAVDQLTEKIHQTGLKVVRLCAKSREAIDSPVSFLALHNQIRNMDSMPELQKLQQLKDETGELSSADEKRYRALKRTAERELLMNADVICCTCVGAGDPRLAKMQFRSILIDESTQATEPECMVPVVLGAKQLILVGDHCQLGPVVMCKKAAKAGLSQSLFERLVVLGIRPIRLQVQYRMHPALSAFPSNIFYEGSLQNGVTAADRVKKGFDFQWPQPDKPMFFYVTQGQEEIASSGTSYLNRTEAANVEKITTKLLKAGAKPDQIGIITPYEGQRSYLVQYMQFSGSLHTKLYQEVEIASVDAFQGREKDFIILSCVRANEHQGIGFLNDPRRLNVALTRARYGVIIVGNPKALSKQPLWNHLLNYYKEQKVLVEGPLNNLRESLMQFSKPRKLVNTINPGARFMTTAMYDAREAIIPGSVYDRSSQGRPSSMYFQTHDQIGMISAGPSHVAAMNIPIPFNLVMPPMPPPGYFGQANGPAAGRGTPKGKTGRGGRQKNRFGLPGPSQTNLPNSQASQDVASQPFSQGALTQGYISMSQPSQMSQPGLSQPELSQDSYLGDEFKSQIDVALSQDSTYQGERAYQHGGVTGLSQY
B2: SMG-8 (natural protein)
chain: MAGPVSLRDLLMGASAWMGSESPGGSPTEGGGSAAGGPEPPWREDEICVVGIFGKTALRLNSEKFSLVNTVCDRQVFPLFRHQDPGDPGPGIRTEAGAVGEAGGAEDPGAAAGGSVRGSGAVAEGNRTEAGSQDYSLLQAYYSQESKVLYLLLTSICDNSQLLRACRALQSGEAGGGLSLPHAEAHEFWKHQEKLQCLSLLYLFSVCHILLLVHPTCSFDITYDRVFRALDGLRQKVLPLLKTAIKDCPVGKDWKLNCRPCPPRLLFLFQLNGALKVEPPRNQDPAHPDKPKKHSPKRRLQHALEDQIYRIFRKSRVLTNQSINCLFTVPANQAFVYIVPGSQEEDPVGMLLDQLRSHCTVKDPESLLVPAPLSGPRRYQVMRQHSRQQLSFHIDSSSSSSSGQLVDFTLREFLWQHVELVLSKKGFDDSVGRNPQPSHFELPTYQKWISAASKLYEVAIDGKEEDLGSPTGELTSKILSSIKVLEGFLDIDTKFSENRCQKALPMAHSAYQSNLPHNYTMTVHKNQLAQALRVYSQHARGPAFHKYAMQLHEDCYKFWSNGHQLCEERSLTDQHCVHKFHSLPKSGEKPEADRNPPVLYHNSRARSTGACNCGRKQAPRDDPFDIKAANYDFYQLLEEKCCGKLDHINFPVFEPSTPDPAPAKNESSPAPPDSDADKLKEKEPQTQGESTSLSLALSLGQSTDSLGTYPADPQAGGDNPEVHGQVEVKTEKRPNFVDRQASTVEYLPGMLHSNCPKGLLPKFSSWSLVKLGPAKSYNFHTGLDQQGFIPGTNYLMPWDIVIRTRAEDEGDLDTNSWPAPNKAIPGKRSAVVMGRGRRRDDIARAFVGFEYEDSRGRRFMCSGPDKVMKVMGSGPKESALKALNSDMPLYILSSSQGRGLKPHYAQLMRLFVVVPDAPLQIILMPQVQPGPPPCPVFYPEKQEITLPPDGLWVLRFPYAYVTERGPCFPPKENVQLMSYKVLRGVLKAVTQ

The target of experiment [1] is SMG-1–8–9 complex (human | , UniProt Q96Q15;Q8ND04;Q9H0W8). The experiment can be described thus: negative-stain electron microscopy.
Sequence of SMG-1–8–9 complex (Q96Q15 whole entry, one chain of several): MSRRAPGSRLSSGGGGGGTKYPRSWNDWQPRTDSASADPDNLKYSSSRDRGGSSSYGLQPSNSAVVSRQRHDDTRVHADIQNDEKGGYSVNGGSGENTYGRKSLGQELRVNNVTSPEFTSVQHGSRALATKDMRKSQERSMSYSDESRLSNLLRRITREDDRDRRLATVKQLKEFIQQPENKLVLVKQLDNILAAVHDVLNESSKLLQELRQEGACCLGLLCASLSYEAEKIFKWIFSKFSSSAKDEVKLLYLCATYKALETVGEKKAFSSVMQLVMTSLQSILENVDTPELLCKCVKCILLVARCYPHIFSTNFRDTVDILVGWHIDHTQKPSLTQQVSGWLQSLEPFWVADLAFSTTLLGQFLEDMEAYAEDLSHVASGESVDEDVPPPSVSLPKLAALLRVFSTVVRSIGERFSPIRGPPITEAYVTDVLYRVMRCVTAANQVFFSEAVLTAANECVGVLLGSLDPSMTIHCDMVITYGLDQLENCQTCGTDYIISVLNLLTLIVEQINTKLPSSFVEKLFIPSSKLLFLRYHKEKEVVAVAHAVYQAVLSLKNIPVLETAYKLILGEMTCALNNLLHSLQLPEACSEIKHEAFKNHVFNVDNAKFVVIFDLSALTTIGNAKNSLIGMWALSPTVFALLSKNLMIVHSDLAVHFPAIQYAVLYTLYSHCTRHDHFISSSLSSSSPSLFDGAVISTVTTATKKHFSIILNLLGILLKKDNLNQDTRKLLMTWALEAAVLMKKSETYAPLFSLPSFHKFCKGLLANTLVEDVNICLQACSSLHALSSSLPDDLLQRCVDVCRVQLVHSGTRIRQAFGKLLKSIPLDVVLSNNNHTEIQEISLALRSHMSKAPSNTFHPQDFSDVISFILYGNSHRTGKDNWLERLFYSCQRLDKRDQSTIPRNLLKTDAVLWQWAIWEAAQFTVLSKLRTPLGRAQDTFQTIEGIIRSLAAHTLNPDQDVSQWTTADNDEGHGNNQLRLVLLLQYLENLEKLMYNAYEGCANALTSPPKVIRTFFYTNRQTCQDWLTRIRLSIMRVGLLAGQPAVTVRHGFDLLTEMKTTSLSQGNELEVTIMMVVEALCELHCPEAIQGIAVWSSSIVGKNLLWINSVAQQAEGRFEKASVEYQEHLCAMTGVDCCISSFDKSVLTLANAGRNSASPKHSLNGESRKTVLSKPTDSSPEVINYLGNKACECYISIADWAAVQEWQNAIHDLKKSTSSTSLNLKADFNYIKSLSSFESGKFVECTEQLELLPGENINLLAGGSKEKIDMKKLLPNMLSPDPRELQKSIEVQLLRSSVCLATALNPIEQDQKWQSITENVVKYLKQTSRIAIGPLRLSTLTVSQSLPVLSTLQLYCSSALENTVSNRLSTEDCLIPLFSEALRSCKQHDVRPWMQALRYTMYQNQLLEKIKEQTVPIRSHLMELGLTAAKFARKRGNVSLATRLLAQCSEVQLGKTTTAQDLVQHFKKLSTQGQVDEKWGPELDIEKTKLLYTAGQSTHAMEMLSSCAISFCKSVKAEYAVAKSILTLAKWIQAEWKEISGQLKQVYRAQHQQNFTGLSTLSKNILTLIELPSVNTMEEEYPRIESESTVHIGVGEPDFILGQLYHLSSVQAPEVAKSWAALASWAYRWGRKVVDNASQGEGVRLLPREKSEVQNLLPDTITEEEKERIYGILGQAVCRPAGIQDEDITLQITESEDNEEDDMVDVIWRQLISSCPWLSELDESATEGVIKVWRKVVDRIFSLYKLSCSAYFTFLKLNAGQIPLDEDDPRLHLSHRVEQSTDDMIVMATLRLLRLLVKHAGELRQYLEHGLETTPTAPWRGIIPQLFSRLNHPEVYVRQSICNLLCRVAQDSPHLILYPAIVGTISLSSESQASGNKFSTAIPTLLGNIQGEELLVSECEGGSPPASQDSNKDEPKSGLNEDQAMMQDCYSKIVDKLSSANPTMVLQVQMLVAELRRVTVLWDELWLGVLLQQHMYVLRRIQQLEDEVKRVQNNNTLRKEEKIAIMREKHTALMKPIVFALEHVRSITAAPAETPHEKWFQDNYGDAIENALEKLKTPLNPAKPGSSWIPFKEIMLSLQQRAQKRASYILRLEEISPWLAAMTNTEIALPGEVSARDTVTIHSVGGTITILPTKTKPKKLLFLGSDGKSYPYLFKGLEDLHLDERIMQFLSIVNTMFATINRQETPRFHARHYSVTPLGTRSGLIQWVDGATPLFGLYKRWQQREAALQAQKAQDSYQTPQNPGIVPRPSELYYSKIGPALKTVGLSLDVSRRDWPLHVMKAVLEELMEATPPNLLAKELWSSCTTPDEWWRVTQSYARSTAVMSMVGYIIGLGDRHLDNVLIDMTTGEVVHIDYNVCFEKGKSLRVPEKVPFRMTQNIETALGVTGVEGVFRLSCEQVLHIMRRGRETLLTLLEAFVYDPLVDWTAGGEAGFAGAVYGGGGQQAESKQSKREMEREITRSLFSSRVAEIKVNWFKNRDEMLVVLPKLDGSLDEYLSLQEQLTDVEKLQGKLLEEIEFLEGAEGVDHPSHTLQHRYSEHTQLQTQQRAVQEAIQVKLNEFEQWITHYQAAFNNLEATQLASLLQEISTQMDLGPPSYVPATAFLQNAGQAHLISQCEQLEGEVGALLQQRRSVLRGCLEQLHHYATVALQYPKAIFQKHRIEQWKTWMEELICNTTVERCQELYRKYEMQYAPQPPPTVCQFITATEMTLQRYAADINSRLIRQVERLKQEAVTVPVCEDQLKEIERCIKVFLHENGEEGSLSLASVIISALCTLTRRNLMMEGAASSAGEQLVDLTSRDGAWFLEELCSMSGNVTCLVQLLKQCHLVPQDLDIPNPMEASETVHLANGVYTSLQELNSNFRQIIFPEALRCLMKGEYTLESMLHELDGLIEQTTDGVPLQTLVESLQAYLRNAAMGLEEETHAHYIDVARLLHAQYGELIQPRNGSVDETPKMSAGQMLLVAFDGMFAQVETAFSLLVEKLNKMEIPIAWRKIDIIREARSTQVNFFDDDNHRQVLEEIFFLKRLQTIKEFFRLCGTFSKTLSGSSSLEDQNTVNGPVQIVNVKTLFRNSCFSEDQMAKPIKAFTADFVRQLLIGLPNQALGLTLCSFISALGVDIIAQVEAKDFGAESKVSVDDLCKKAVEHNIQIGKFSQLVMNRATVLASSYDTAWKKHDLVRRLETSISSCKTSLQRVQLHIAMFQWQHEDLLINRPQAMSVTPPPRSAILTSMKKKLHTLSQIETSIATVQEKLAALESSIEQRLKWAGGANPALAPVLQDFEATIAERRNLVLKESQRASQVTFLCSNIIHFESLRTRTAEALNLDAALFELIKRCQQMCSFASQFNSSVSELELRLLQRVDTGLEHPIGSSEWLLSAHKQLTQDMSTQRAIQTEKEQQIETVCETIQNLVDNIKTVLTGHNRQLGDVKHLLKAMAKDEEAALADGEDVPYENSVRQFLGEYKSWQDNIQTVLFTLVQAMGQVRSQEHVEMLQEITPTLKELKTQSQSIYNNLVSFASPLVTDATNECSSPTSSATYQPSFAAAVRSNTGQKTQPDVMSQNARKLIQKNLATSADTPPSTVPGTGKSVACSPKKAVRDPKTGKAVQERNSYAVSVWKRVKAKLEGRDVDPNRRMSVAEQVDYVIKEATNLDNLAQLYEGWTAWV
The target of experiment [2] is T1, SMG-1, full length, SBP-tagged (human, UniProt Q96Q15 1-3661). Kind of experiment: cryo-EM structure.
T1 sequence (Q96Q15 whole entry): as the sequence (Q96Q15 whole entry, one chain of several) above
In experiment [3] the target is T1, SMG-1, full length, SBP-tagged. The experiment can be described thus: cross-linking.
In experiment [4] the target is B1. The experiment can be described thus: SEC.
Experiment [5] has as its target B1. The experiment can be described thus: cross-linking.
The target of experiment [6] is B2. The experiment can be described thus: cross-linking.

Take B1: the binding result in experiment [1] and in experiment [2] was “binds” in each case. For the molecule B2, the binding result in experiment [3] is recorded as “binds”.

B3: UPF2 (121–1227) (domain or fragment)
chain: MKEKEESIQLHQEAWERHHLRKELRSKNQNAPDSRPEENFFSRLDSSLKKNTAFVKKLKTITEQQRDSLSHDFNGLNLSKYIAEAVASIVEAKLKISDVNCAVHLCSLFHQRYADFAPSLLQVWKKHFEARKEEKTPNITKLRTDLRFIAELTIVGIFTDKEGLSLIYEQLKNIINADRESHTHVSVVISFCRHCGDDIAGLVPRKVKSAAEKFNLSFPPSEIISPEKQQPFQNLLKEYFTSLTKHLKRDHRELQNTERQNRRILHSKGELSEDRHKQYEEFAMSYQKLLANSQSLADLLDENMPDLPQDKPTPEEHGPGIDIFTPGKPGEYDLEGGIWEDEDARNFYENLIDLKAFVPAILFKDNEKSCQNKESNKDDTKEAKESKENKEVSSPDDLELELENLEINDDTLELEGGDEAEDLTKKLLDEQEQEDEEASTGSHLKLIVDAFLQQLPNCVNRDLIDKAAMDFCMNMNTKANRKKLVRALFIVPRQRLDLLPFYARLVATLHPCMSDVAEDLCSMLRGDFRFHVRKKDQINIETKNKTVRFIGELTKFKMFTKNDTLHCLKMLLSDFSHHHIEMACTLLETCGRFLFRSPESHLRTSVLLEQMMRKKQAMHLDARYVTMVENAYYYCNPPPAEKTVKKKRPPLQEYVRKLLYKDLSKVTTEKVLRQMRKLPWQDQEVKDYVICCMINIWNVKYNSIHCVANLLAGLVLYQEDVGIHVVDGVLEDIRLGMEVNQPKFNQRRISSAKFLGELYNYRMVESAVIFRTLYSFTSFGVNPDGSPSSLDPPEHLFRIRLVCTILDTCGQYFDRGSSKRKLDCFLVYFQRYVWWKKSLEVWTKDHPFPIDIDYMISDTLELLRPKIKLCNSLEESIRQVQDLEREFLIKLGLVNDKDSKDSMTEGENLEEDEEEEEGGAETEEQSGNESEVNEPEEEEGSDNDDDEGEEEEEENTDYLTDSNKENETDEENTEVMIKGGGLKHVPCVEDEDFIQALDKMMLENLQQRSGESVKVHQLDVAIPLHLKSQLRKGPPLGGGEGEAESADTMPFVMLTRKGNKQQFKILNVPMSSQLAANHWNQQQAEQEERMRMKKLTLDINERQEQED
Regarding B3, the binding result in experiment [4] was “binds”.

B4: SMG-9 (natural protein)
chain: MSESGHSQPGLYGIERRRRWKEPGSGGPQNLSGPGGRERDYIAPWERERRDASEETSTSVMQKTPIILSKPPAERSKQPPPPTAPAAPPAPAPLEKPIVLMKPREEGKGPVAVTGASTPEGTAPPPPAAPAPPKGEKEGQRPTQPVYQIQNRGMGTAAPAAMDPVVGQAKLLPPERMKHSIKLVDDQMNWCDSAIEYLLDQTDVLVVGVLGLQGTGKSMVMSLLSANTPEEDQRTYVFRAQSAEMKERGGNQTSGIDFFITQERIVFLDTQPILSPSILDHLINNDRKLPPEYNLPHTYVEMQSLQIAAFLFTVCHVVIVVQDWFTDLSLYRFLQTAEMVKPSTPSPSHESSSSSGSDEGTEYYPHLVFLQNKARREDFCPRKLRQMHLMIDQLMAHSHLRYKGTLSMLQCNVFPGLPPDFLDSEVNLFLVPFMDSEAESENPPRAGPGSSPLFSLLPGYRGHPSFQSLVSKLRSQVMSMARPQLSHTILTEKNWFHYAARIWDGVRKSSALAEYSRLLA
B4: the binding result in experiment [5], in experiment [3] and in experiment [6] was “binds” in each case.
